Measurements reported in article PMC6635623.
Values joined by “and” are separate entries in the source; they are usually repeats but may differ in a detail not shown here. Identical values can stand only once.

Target: Hfq-FLAG (Yersinia pestis Hfq with C-terminal 3×FLAG tag) (Yersinia pestis)
Experiment: […]; 25 mM Tris-HCl (pH 8.0) […]

“Hfq-FLAG (Yersinia pestis Hfq with C-terminal 3×FLAG tag) (natural protein)” was tested, and the stoichiometry N was 3 and 6.
